From the supplement of paper PMC9170038

Test system: MS2 coat protein
Assay: apparent KD of MS2 coat protein; designed switch direction (-1 OFF switch, 1 ON switch): -1; higher = weaker reporter binding
Outline: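 RNA switches sharing common flanks were transcribed by stalled E. coli RNA polymerase on Illumina chips. A doubling series of SNAP-549-labelled MS2 coat protein, from 0.7 or 1.5 nM to 3 µM, was applied in Tris-HCl pH 7.5 buffer with KCl, MgCl2, BSA, DTT, tRNA and Tween-20. Each step lasted 0.8–1.5 h at the bottom of the series and 10–20 min at the top. Normalised cluster fluorescence was curve-fitted, giving apparent KD as the per-design median over clusters.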

[1] = input ligand: microRNA oligo, concentration not stated
[2] = Eterna round: R95, input ligand: microRNA oligo, concentration not stated
[3] = Eterna round: R95, input ligand: FMN 200 uM
[4] = Eterna round: R95, input ligand: none

| Sequence | apparent KD of MS2 coat protein (input ligand: FMN 200 uM) [nM] | apparent KD of MS2 coat protein (input ligand: none) [nM] | apparent KD of MS2 coat protein [1] [nM] | apparent KD of MS2 coat protein [2] [nM] | apparent KD of MS2 coat protein [3] [nM] | apparent KD of MS2 coat protein [4] [nM] |
| --- | --- | --- | --- | --- | --- | --- |
| ACACAGCAAGGAUAUACAUGAGGAUCACCCAUGUGGCGGCCGUUACGGUAGGACUAGUGUAGAAGGUGCAUUGG [EX3 #33] (Eterna round: R97, puzzle: Exclusion 3) | 167 | 210 |  |  |  |  |
| ACGAUGAUCGAAAAGUGUAAACUAACAUGAGGAUCACCCAUGUAGGAUAUGGCUACGAAAAGUAGUCAGAAGGGCAUGUCAUCA [3 Av mod - 2] (Eterna round: R96, puzzle: Exclusion NG 3) | 24 | 20.3 | 13.2 |  |  |  |
| GAGGAACAUGAGGAUCACCCAUGUGAGGAUAUGCAUAGUGAGGUAGUAGAAGUUGAAUGCAGAAGGUACACUGA [JR_Exclu1_Sub077] (puzzle: Exclusion 1) |  |  |  | 39 |  |  |
| CAGUACUGAGGAUAUACAUGAGGAUCACCCAUGUGAGAAAUACUAGUGAGGUCGAUUAGUAGAAGGCAGUACUG [Mat - Exclusion 3 - Eli Mod - D31] (Eterna round: R97, puzzle: Exclusion 3) | 761 | 35.4 |  |  |  |  |
| UUUAAUUUUUUUUUUUUACAAGCUUUUUGCUCGUCUUAUACAUGAGGAUCACCCAUGUAGGUGGAGGGUAAAUUAUC [JMF 90] (puzzle: Sensor v3, turn-off variant 2) |  |  |  | 44.1 | 15.6 | 13.1 |
| ACAUUACAUGAGGAUCACCCAUGUGAGGAUAUGGUGCGGUAGUGUCCUGUCGCGUACACCAGAAGGCGCGGGUG [1st #47] (Eterna round: R97, puzzle: Exclusion 1) | 122 | 258 |  |  |  |  |
| AACGUGGCAAAGGAUAUCCACACGGCAAAGCCGGGAGAAGGUUGCACAUGAGGAUCACCCAUGUGAACCAAACA [Onsozamati] (puzzle: Exclusion 6) |  |  |  | 13.6 |  |  |
| UUUUAGUCAGGAUAUACAUGAGGAUCACCCAUGUAAAAUUUUAAUUUAAUUUUAAGGUGUAGAAGGGACAUUUU [Ex3 #5] (Eterna round: R97, puzzle: Exclusion 3) | 24.5 | 27.6 |  |  |  |  |
| AAUUAGCAAGCAAGAUCCCACAUGAGGAUCACCCAUGUGCUCGUCUUAUAAGGUACUGUGACGAAAGUCACGGUACC [Mat - Sensor, turn-off var - Eli Mod - D50] (Eterna round: R97, puzzle: Sensor, turn-off variant 1) | 50.2 | 54.8 |  |  |  |  |
| CGUCUGUAAGGAUAUGGUAGCAUUUACAUGAGGAUCACCCAUGUUACAUGGGACUAGUGACUAGAAGGUACGAACG [EX5 #54] (Eterna round: R97, puzzle: Exclusion 5) | 106 | 142 |  |  |  |  |
| UAACAAGCUUAAAGAUCCCACAUGAGGAUCACCCAUGUGCUCGUCUUAUAACGUACUGUGACGAAAGUCACGGUACG [JL TOV1 3.13] (Eterna round: R97, puzzle: Sensor, turn-off variant 1) | 29.2 | 26.3 |  |  |  |  |
| UGGCUACAUGAGGAUCACCCAUGUCAGGAUAUGCCGUUAAAUUGACAUCAACGUACGGGUAGAAGGGACUGCGU [1st #8] (Eterna round: R97, puzzle: Exclusion 1) | 43.2 | 45.6 |  |  |  |  |
| GAUUAUGCGAGCUUUAGGGACAUGAGGAUCACCCAUGUUCGUCUUAUUAAUCUAGGUGCGCUAACAUACCUAAAUCU [JMF 47] (puzzle: Sensor v3, turn-off variant 1) |  |  |  | 32 | 21.5 | 23.7 |
| CCCGGGCUUGUGAGGAUAUUGUGUGUGAAAGCGCGCGAGAAGGCACAUGAGGAUCACCCAUGUAAGGGCCCGGG [-34.6, -32.6 kcal, A 23%, 6bis-0] (Eterna round: R97, puzzle: Brourd's mod of Exclusion 4) | 19.3 | 85.9 |  |  |  |  |
| CUAUGAGUAGGAUAUGAGCCAAAAUACAUGAGGAUCACCCAUGUCGGGUUCAUGGAGGGCUCAGAAGGAUUCAAUA [Exclusion 5 - Laarte Mod2] (Eterna round: R97, puzzle: Exclusion 5) | 59.8 | 17.1 |  |  |  |  |
| CUAUUGUGAGGAUAUCAGUAGUAGAACAAUAGUACUACUACUGAGAAGGCACAUGAGGAUCACCCAUGUUCCUC [Fiskers Ex 4 Super stable 44 mod 7] (puzzle: Exclusion 4) |  |  |  | 57.3 |  |  |
| GGAUCGAGUGUGAGGAUAUACCUAUGGAAACAUAGGUAGAAGGCACAUGAGGAUCACCCAUGUUCCAACGGUCC [Mat - Exclusion 4 - Eli Mod - D11] (Eterna round: R97, puzzle: Brourd's mod of Exclusion 4) | 715 | 90.6 |  |  |  |  |
| CUUUUGUGAGGAUAUUAGUAGUAAAUAAAUAAUAUUACUACUGAGAAGGCACAUGAGGAUCACCCAUGUUCCUC [salish99_ex4_r3_059] (puzzle: Exclusion 4) |  |  |  | 38.8 |  |  |

| Sequence | apparent KD of MS2 coat protein (input ligand: FMN 200 uM) [nM] | apparent KD of MS2 coat protein (input ligand: none) [nM] | apparent KD of MS2 coat protein [1] [nM] | apparent KD of MS2 coat protein [2] [nM] | apparent KD of MS2 coat protein [3] [nM] | apparent KD of MS2 coat protein [4] [nM] |
| --- | --- | --- | --- | --- | --- | --- |
| UUAAAUCAUGUAGGAUAUGCGUGGCGAAGCUAUGCAGAAGGACAUGAGGAUCACCCAUGUGCUAGCGUCCGCGUACGGAUGCAA [JL ENG1 1.21] (Eterna round: R96, puzzle: Exclusion NG 1) | 131 | 62 | 57.1 |  |  |  |
| AAACUGCAUGUGAGGAUAUGCACCGGCUAAACCGGGCAGAAGGCACAUGAGGAUCACCCAUGUCAUCCUAUUGC [Esleisus] (puzzle: Brourd's mod of Exclusion 4) |  |  |  | 9.01 |  |  |
| AAGAUGUGAGGAUAUCACGAGAACGUCACACGGACGCUCUCUGAGAAGGCACAUGAGGAUCACCCAUGUCCAAC [EX4 A.21] (Eterna round: R97, puzzle: Exclusion 4) | 207 | 47.2 |  |  |  |  |
| CUGCGUCGUGUUAGGAUAUCCAGCGGUGCGCGCCAGGAGAAGGAACAUGAGGAUCACCCAUGUAAACCGAUGGC [Aratte] (puzzle: Brourd's mod of Exclusion 4) |  |  |  | 11 |  |  |
| CUGGCUUAGAGAGGAUAUGACAUUCAAGCCUACCCUGGCCACGGGCCACAUGAGGAUCACCCAUGUCAGAAGGCUCAGGCCAGA [Enorri] (Eterna round: R96, puzzle: Exclusion NG 2) | 61.7 | 32.8 | 25.5 |  |  |  |
| UUGAUUCAUGUAGGAUAUGCGUGGCGAAGCUAUGCAGAAGGACAUGAGGAUCACCCAUGUGCUUGCGUCCGCGUACGGAUGCUA [JL ENG1 1.23] (Eterna round: R96, puzzle: Exclusion NG 1) | 154 | 165 | 107 |  |  |  |
| AACAUGGUAAAGGAUAUUGUCGCAGAAUGCGAUCAAGAAGGUUACACAUGAGGAUCACCCAUGUGGAAUCCAUC [Eternabot (Original) Solution 24] (Eterna round: R97, puzzle: Exclusion 6) | 63.2 | 17.2 |  |  |  |  |
| CCUCAGUGAGGAUAUGGUAGACACAAUCGGGAUUGAGAAGGCCAGAAGGUACAUGAGGAUCACCCAUGUAAUCA [Eternabot (L2) Solution 58] (Eterna round: R97, puzzle: Exclusion 4) | 27.2 | 21.9 |  |  |  |  |
| GGUUGGCGAGGAUAUACAUGAGGAUCACCCAUGUGAGAGAAAAUAGUGAGGAAGAAAAGUAGAAGGCGCUGACG [salish99_ex3_r3_014] (puzzle: Exclusion 3) |  |  |  | 47.7 | 98.1 | 37.5 |
| UAAAAUCUAGGAUAUACAUGAGGAUCACCCAUGUUGCUCCCAGCUCGUGACCUCCAAUGUAGAAGGAGAACGAU [EX3 A.15] (Eterna round: R97, puzzle: Exclusion 3) | 19.8 | 20.1 |  |  |  |  |
| AAUUAAUAUCAGGAUAUGACUUUCGAUAUUUAGUCAGAAGGGAUGACAUGAGGAUCACCCAUGUGAUCAAUUAA [JR_Ex6_Sub027] (Eterna round: R97, puzzle: Exclusion 6) | 101 | 37.7 |  |  |  |  |
| AGCGAGGUAGGAUAUACAUGAGGAUCACCCAUGUGCUUGUAUGGCGUGGAACAUCGUAGUAGAAGGGCCGCGCC [EX3 #76] (Eterna round: R97, puzzle: Exclusion 3) | 21.9 | 20.9 |  |  |  |  |
| GCUAGAGCAGGAUAUUCAAAACCUCACAUGAGGAUCACCCAUGUGGCCGAAAGGCCGGGAGGAGAAGGGCUCUAGC [Mat - Exclusion 5 - Eli mod - D84] (Eterna round: R96, puzzle: Exclusion 5) | 42.4 | 19.4 | 14.3 |  |  |  |
| UUUCUUGGGCAAGGAUAUCCUGUGCGGUUCCGGCUCGUGUCUGUCACAUGAGGAUCACCCAUGUGGGAGAAGGUGCCUGCGGUC [Design 82] (Eterna round: R96, puzzle: Exclusion NG 2) | 14.4 | 14.9 | 11.2 |  |  |  |
| ACAUGAGGAUCACCCAUGUUCGGCUGGUCCGUCUCGGCUGUCGAGGAUAUAGCUCGGUGUCCGCGCUAGAAGGCGGGAGCUGGC [Aenatbe mod 66] (Eterna round: R96, puzzle: Exclusion NG 3) | 106 | 90 | 47 |  |  |  |
| CUCCGGCGUGUAGGAUAUGGUUCCGAUUAGGAUCCAGAAGGACAUGAGGAUCACCCAUGUACAUGUCGUCGGUCGUCACCGGGC [salish99_ExNG1_r04_211] (Eterna round: R96, puzzle: Exclusion NG 1) | 107 | 29.4 | 24.1 |  |  |  |
| CUUUUGGGAGGAUAUUAGUAGUAAAUAAAUAAAAUUACUACUGAGAAGGCACAUGAGGAUCACCCAUGUUCCUC [salish99_ex4_r3_071] (puzzle: Exclusion 4) |  |  |  | 19.7 |  |  |
